For experiment [1], the target named is wild-type human CD9 LEL (human) (UniProt P21926). The experiment is described as follows: yeast display flow cytometry; MEM-61 10 µg/ml + goat anti-mouse (Fab′)2-Alexa Fluor 555; induction at 37 °C; secondary only 4.21. For orientation: In flow cytometry, cells or beads pass a laser one at a time.
The target is the same in experiment [2]. The experiment is described as follows: yeast display flow cytometry; MEM-61 10 µg/ml + goat anti-mouse (Fab′)2-Alexa Fluor 555; induction at 20 °C; secondary only 1.14.
For experiment [3], the target named is wild-type human CD81 LEL (human) (UniProt P60033). The experiment is described as follows: ELISA; M38 coated at 5 µg/mL, CD81 LEL variant at 0.020576 µg/ml, anti-his-HRP. (In an ELISA, binding on a coated surface is turned into a signal by an enzyme label.)
Sequence of wild-type human CD81 LEL (human) (P60033 113-201 limits assumed): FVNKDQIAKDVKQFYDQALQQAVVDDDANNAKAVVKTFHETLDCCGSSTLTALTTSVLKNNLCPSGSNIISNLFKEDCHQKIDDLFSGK
In experiment [4] the target is hCD81 LEL mutant C4C9 (Ala134Cys/Lys144Cys and Val135Cys/Ser168Cys) (human) (UniProt P60033). Described as above.
Sequence of hCD81 LEL mutant C4C9 (Ala134Cys/Lys144Cys and Val135Cys/Ser168Cys) (human) (P60033 114-202 A134C/V135C/K144C/S168C): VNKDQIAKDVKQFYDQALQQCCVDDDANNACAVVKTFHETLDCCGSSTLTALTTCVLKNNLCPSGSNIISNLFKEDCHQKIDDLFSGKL
Experiment [5] deals with wild-type human CD81 LEL (human) (UniProt P60033). The experiment in a line: ELISA; M38 coated at 5 µg/mL, CD81 LEL variant at 0.002286 µg/ml, anti-his-HRP.
Experiment [6] has as its target hCD81 LEL mutant C4C9 (Ala134Cys/Lys144Cys and Val135Cys/Ser168Cys) (human) (UniProt P60033). Described as above.
In experiment [7] the target is wild-type human CD81 LEL (human) (UniProt P60033). The experiment in a line: ELISA; M38 coated at 5 µg/mL, CD81 LEL variant at 0.061728 µg/ml, anti-his-HRP.
The target of experiment [8] is hCD81 LEL mutant C4C9 (Ala134Cys/Lys144Cys and Val135Cys/Ser168Cys) (human) (UniProt P60033). The experiment is described as above.
The target in experiment [9] is wild-type human CD81 LEL (human) (UniProt P60033). The experiment in a line: ELISA; M38 coated at 5 µg/mL, CD81 LEL variant at 0.555556 µg/ml, anti-his-HRP.
Experiment [10] has as its target hCD81 LEL mutant C4C9 (Ala134Cys/Lys144Cys and Val135Cys/Ser168Cys) (human) (UniProt P60033). Described as above.
For experiment [11], the target named is wild-type human CD81 LEL (human) (UniProt P60033). The experiment in a line: ELISA; M38 coated at 5 µg/mL, CD81 LEL variant at 0.185185 µg/ml, anti-his-HRP.
The target of experiment [12] is hCD81 LEL mutant C4C9 (Ala134Cys/Lys144Cys and Val135Cys/Ser168Cys) (human) (UniProt P60033). The experiment is described as above.
The target of experiment [13] is wild-type human CD81 LEL (human) (UniProt P60033). The experiment is described as follows: HEK293-6E cell display flow cytometry; M38 10 µg/ml + anti-mouse F(ab)2-Alexa Fluor 555; secondary only 8.52.
Experiment [14] has the same target. The experiment is described as follows: ELISA; M38 coated at 5 µg/mL, CD81 LEL variant at 5 µg/ml, anti-his-HRP.
For experiment [15], the target named is hCD81 LEL mutant C4C9 (Ala134Cys/Lys144Cys and Val135Cys/Ser168Cys) (human) (UniProt P60033). The experiment is described as above.
Experiment [16] has as its target wild-type human CD81 LEL (human) (UniProt P60033). The experiment is described as follows: ELISA; M38 coated at 5 µg/mL, CD81 LEL variant at 1.666667 µg/ml, anti-his-HRP.
Experiment [17] deals with hCD81 LEL mutant C4C9 (Ala134Cys/Lys144Cys and Val135Cys/Ser168Cys) (human) (UniProt P60033). The experiment is described as above.
Experiment [18] has as its target wild-type human CD81 LEL (human) (UniProt P60033). The experiment is described as follows: ELISA; M38 coated at 5 µg/mL, CD81 LEL variant at 0.006859 µg/ml, anti-his-HRP.
The target of experiment [19] is hCD81 LEL mutant C4C9 (Ala134Cys/Lys144Cys and Val135Cys/Ser168Cys) (human) (UniProt P60033). Described as above.
Experiment [20] deals with streptavidin-Alexafluor 647 (UniProt P22629). The experiment in a line: yeast display flow cytometry; secondary reagent only.
Sequence of streptavidin-Alexafluor 647 (P22629 37-163 limits assumed): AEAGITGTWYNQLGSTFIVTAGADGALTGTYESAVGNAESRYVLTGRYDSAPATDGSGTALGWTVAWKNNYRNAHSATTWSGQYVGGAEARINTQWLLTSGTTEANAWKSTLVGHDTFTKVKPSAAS

Sequence of wild-type human CD9 LEL (human) (P21926 113-192 limits assumed): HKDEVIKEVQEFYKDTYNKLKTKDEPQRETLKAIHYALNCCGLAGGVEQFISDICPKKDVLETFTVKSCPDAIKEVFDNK

With anti-CD9 specific antibody MEM-61, the figures for the percentage of positive yeast cells in [1] and in experiment [2] were 26.2% and 46.4%, respectively.
Regarding anti-hCD81 M38 antibody, the A 450/620 in experiment [3] was found to be 1.89; in experiment [4], 1.98; in [5], 0.177; in experiment [6] it was 0.187; in [7] it was 3.53; in experiment [8], 3.46. Besides, the A 450/620 in experiment [9] stood at 3.63; in [10], 3.73; in [11], 3.68; in experiment [12], 3.69; in experiment [14], 3.97; in [15] it was 3.83. Also, the A 450/620 was 3.69 in experiment [16], 3.82 in [17], 0.616 in [18] and 0.75 in experiment [19]. Also, the MFI in experiment [13] came out at 83.8.
For the substance “wild-type human CD81 LEL (from UniProt P60033 113-201)”, the median fluorescence in experiment [20] was 28.3.

Values taken from US20210395725A1.
